*1 amine or outer side, *2 acyl side, *3 side chain or, on linkers, in order; H or OH if unused. Where no end group is shown, it is not given here. Side-chain parts run from the residue outwards. [ ]: non-standard residue; d: D form. The star is where a group is joined. γGlu = O=C(O)[C@H](CCC(=O)[*:2])N[*:1]; Palmitoyl = CCCCCCCCCCCCCCCC(=O)*; Aib = CC(C)(N)C(=O)O
Tests used:
Assay in all cases: cell-based or functional assay
human glucagon receptor = human glucagon receptor (human, UniProt P47871 26-477)
human GIP receptor = target: T1, human GIP receptor (human, UniProt P48546 22-466)
T1 sequence (looked up): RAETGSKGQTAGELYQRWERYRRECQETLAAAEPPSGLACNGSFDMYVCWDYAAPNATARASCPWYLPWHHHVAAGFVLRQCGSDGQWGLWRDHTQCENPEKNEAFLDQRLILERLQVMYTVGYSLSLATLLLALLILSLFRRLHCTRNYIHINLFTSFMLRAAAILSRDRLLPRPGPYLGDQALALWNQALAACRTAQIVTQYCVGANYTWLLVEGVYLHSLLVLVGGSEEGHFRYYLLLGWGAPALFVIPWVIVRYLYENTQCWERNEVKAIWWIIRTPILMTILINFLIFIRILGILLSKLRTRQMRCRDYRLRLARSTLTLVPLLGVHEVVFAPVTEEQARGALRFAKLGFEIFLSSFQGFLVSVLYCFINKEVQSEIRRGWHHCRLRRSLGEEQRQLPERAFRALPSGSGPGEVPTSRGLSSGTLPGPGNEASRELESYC

human GLP-1 receptor = human GLP-1 receptor (human, UniProt P43220 24-463)

Sequence of human glucagon receptor (P47871 26-477): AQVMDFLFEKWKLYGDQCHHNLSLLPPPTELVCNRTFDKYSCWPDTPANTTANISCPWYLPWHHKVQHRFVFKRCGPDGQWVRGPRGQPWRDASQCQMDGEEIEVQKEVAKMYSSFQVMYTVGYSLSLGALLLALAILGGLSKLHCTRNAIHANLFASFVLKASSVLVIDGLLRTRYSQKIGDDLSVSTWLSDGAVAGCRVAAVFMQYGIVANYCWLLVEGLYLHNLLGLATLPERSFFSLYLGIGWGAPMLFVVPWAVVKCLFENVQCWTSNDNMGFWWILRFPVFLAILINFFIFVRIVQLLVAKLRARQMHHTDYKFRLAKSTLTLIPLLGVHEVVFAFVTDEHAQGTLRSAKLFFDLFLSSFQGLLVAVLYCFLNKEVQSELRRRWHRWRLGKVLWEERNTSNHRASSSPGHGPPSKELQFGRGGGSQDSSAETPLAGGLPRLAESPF

B1: SEQ ID NO: 12 (peptide)
peptide: Y[Aib]EGTFTSDLSIQK([γGlu-Palmitoyl])DKRAAQDFIEWLKNGGPSSGAPPPS-NH2
modifications: N-terminus assumed
SMILES: CCCCCCCCCCCCCCCC(=O)N[C@@H](CCC(=O)NCCCC[C@H](NC(=O)[C@H](CCC(N)=O)NC(=O)[C@@H](NC(=O)[C@H](CO)NC(=O)[C@H](CC(C)C)NC(=O)[C@H](CC(=O)O)NC(=O)[C@H](CO)NC(=O)[C@@H](NC(=O)[C@H](Cc1ccccc1)NC(=O)[C@@H](NC(=O)CNC(=O)[C@H](CCC(=O)O)NC(=O)C(C)(C)NC(=O)[C@@H](N)Cc1ccc(O)cc1)[C@@H](C)O)[C@@H](C)O)[C@@H](C)CC)C(=O)N[C@@H](CC(=O)O)C(=O)N[C@@H](CCCCN)C(=O)N[C@@H](CCCNC(=N)N)C(=O)N[C@@H](C)C(=O)N[C@@H](C)C(=O)N[C@@H](CCC(N)=O)C(=O)N[C@@H](CC(=O)O)C(=O)N[C@@H](Cc1ccccc1)C(=O)N[C@H](C(=O)N[C@@H](CCC(=O)O)C(=O)N[C@@H](Cc1c[nH]c2ccccc12)C(=O)N[C@@H](CC(C)C)C(=O)N[C@@H](CCCCN)C(=O)N[C@@H](CC(N)=O)C(=O)NCC(=O)NCC(=O)N1CCC[C@H]1C(=O)N[C@@H](CO)C(=O)N[C@@H](CO)C(=O)NCC(=O)N[C@@H](C)C(=O)N1CCC[C@H]1C(=O)N1CCC[C@H]1C(=O)N1CCC[C@H]1C(=O)N[C@@H](CO)C(N)=O)[C@@H](C)CC)C(=O)O
- EC50 hGLUC R [pM] (human glucagon receptor): 1890 pM
- EC50 hGIP R [pM] (human GIP receptor): 8.9 pM
- EC50 hGLP-1 R [pM] (human GLP-1 receptor): 12.7 pM

B2: SEQ ID NO: 11 (peptide)
peptide: Y[Aib]EGTFTSDLSIQK([γGlu-Palmitoyl])DKRAA[Aib]DFIEWLKAGGPSSGAPPPS-NH2
modifications: N-terminus assumed
SMILES: CCCCCCCCCCCCCCCC(=O)N[C@@H](CCC(=O)NCCCC[C@H](NC(=O)[C@H](CCC(N)=O)NC(=O)[C@@H](NC(=O)[C@H](CO)NC(=O)[C@H](CC(C)C)NC(=O)[C@H](CC(=O)O)NC(=O)[C@H](CO)NC(=O)[C@@H](NC(=O)[C@H](Cc1ccccc1)NC(=O)[C@@H](NC(=O)CNC(=O)[C@H](CCC(=O)O)NC(=O)C(C)(C)NC(=O)[C@@H](N)Cc1ccc(O)cc1)[C@@H](C)O)[C@@H](C)O)[C@@H](C)CC)C(=O)N[C@@H](CC(=O)O)C(=O)N[C@@H](CCCCN)C(=O)N[C@@H](CCCNC(=N)N)C(=O)N[C@@H](C)C(=O)N[C@@H](C)C(=O)NC(C)(C)C(=O)N[C@@H](CC(=O)O)C(=O)N[C@@H](Cc1ccccc1)C(=O)N[C@H](C(=O)N[C@@H](CCC(=O)O)C(=O)N[C@@H](Cc1c[nH]c2ccccc12)C(=O)N[C@@H](CC(C)C)C(=O)N[C@@H](CCCCN)C(=O)N[C@@H](C)C(=O)NCC(=O)NCC(=O)N1CCC[C@H]1C(=O)N[C@@H](CO)C(=O)N[C@@H](CO)C(=O)NCC(=O)N[C@@H](C)C(=O)N1CCC[C@H]1C(=O)N1CCC[C@H]1C(=O)N1CCC[C@H]1C(=O)N[C@@H](CO)C(N)=O)[C@@H](C)CC)C(=O)O
- EC50 hGLUC R [pM] (human glucagon receptor): 7220 pM
- EC50 hGIP R [pM] (human GIP receptor): 3.2 pM
- EC50 hGLP-1 R [pM] (human GLP-1 receptor): 11.5 pM

Reference: US20140206609A1 (Sanofi, published 2014)
